The values that follow are results of earlier work, collected in paper PMC6225487.

Usually Kd stands for a measure of binding affinity in units of concentration.

The series deals with TfR (Homo sapiens) (UniProt P02786).
Sequence of TfR (Homo sapiens) (P02786 89-760): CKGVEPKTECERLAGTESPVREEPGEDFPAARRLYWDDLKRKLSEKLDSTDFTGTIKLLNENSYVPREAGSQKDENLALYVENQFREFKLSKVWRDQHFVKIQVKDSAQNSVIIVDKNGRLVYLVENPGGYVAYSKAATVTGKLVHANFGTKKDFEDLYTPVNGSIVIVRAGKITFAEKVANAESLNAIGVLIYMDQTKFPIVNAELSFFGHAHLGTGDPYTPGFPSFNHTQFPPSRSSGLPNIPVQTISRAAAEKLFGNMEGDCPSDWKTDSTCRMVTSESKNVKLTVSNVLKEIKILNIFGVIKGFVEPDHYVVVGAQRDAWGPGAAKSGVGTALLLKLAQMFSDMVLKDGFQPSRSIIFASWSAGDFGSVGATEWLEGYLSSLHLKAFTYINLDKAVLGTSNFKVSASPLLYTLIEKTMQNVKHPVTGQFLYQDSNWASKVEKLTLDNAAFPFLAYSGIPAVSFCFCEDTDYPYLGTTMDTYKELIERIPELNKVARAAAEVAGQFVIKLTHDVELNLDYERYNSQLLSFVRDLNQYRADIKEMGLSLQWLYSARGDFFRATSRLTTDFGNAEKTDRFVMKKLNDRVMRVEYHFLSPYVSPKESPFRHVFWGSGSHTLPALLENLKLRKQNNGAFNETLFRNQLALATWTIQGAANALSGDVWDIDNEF

Take T7 peptide: the Kd was 10 nM.
